Values quoted from earlier work in PMC8087844.

Target: IL2R alpha (CD25) (Homo sapiens) (UniProt P01589)
Sequence of UniProt P01589 (P01589 22-240): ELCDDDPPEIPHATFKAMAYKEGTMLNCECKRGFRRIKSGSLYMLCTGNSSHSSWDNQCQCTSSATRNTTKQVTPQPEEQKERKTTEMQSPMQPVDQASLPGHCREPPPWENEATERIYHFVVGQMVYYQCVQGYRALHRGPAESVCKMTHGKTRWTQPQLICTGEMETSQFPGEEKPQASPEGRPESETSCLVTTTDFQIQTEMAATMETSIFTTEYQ

## Daclizumab
  Kd: 300 pM
